Measurements taken from patent US20210403601A1 (FAPON BIOTECH, published 2021).
Like-named read-outs stand apart in the source and are kept apart here.

What was measured:
Taq DNA polymerase [1] = target: T1, Taq DNA polymerase (Thermus aquaticus, UniProt P19821 1-832); assay: AMC sensor, antibody immobilised
T1 construct: also called Taq enzyme; Taq DNA enzyme

Taq DNA polymerase [2] = target: T1, Taq DNA polymerase; assay: AMC sensor, antibody immobilised; remark: listed apart in the source
Taq DNA polymerase [3] = target: T1, Taq DNA polymerase; assay: ELISA on coated Taq, antibody 0.46 ng/ml
Protocol: (§1) The antibody activity was detected after mutation. Taq DNA enzyme was diluted with coating solution to the specified concentration, 100 μL per well overnight at 4° C.; which was washed twice with washing solution and patted dry on the next day; with addition of blocking solution (20% BSA+80% PBS), 120 μL per well at 37° C. for 1 h and patted dry; added the diluted Taq monoclonal antibodies, 100 μL/well at 37° C. for 30 min (partial supernatant for 1 h); washed 5 times with washing solution and patted dry; added goat anti-mouse IgG-HRP at 100 μL per well at 37° C. for 30 min; washed 5 times with washing solution and patted dry; added color developing solution A (50 μL/well), added color developing solution B (50 μL/well) for 10 min; added stop solution, 50 μL/well; followed by reading the OD value at 450 nm (reference 630 nm) on the microplate reader.

Taq DNA polymerase [4] = target: T1, Taq DNA polymerase; assay: ELISA on coated Taq, antibody 1.37 ng/ml
Protocol: as §1

Taq DNA polymerase [5] = target: T1, Taq DNA polymerase; assay: ELISA on coated Taq, antibody 4.12 ng/ml
Protocol: as §1

Taq DNA polymerase [6] = target: T1, Taq DNA polymerase; assay: ELISA on coated Taq, antibody 12.35 ng/ml
Protocol: as §1

Taq DNA polymerase [7] = target: T1, Taq DNA polymerase; assay: ELISA on coated Taq, antibody 37.04 ng/ml
Protocol: as §1

Taq DNA polymerase [8] = target: T1, Taq DNA polymerase; assay: ELISA on coated Taq, antibody 0 ng/ml (blank)
Protocol: as §1

Taq DNA polymerase [9] = target: T1, Taq DNA polymerase; assay: AMC sensor, antibody immobilised; remark: listed apart in the source

T1 sequence (P19821 whole entry): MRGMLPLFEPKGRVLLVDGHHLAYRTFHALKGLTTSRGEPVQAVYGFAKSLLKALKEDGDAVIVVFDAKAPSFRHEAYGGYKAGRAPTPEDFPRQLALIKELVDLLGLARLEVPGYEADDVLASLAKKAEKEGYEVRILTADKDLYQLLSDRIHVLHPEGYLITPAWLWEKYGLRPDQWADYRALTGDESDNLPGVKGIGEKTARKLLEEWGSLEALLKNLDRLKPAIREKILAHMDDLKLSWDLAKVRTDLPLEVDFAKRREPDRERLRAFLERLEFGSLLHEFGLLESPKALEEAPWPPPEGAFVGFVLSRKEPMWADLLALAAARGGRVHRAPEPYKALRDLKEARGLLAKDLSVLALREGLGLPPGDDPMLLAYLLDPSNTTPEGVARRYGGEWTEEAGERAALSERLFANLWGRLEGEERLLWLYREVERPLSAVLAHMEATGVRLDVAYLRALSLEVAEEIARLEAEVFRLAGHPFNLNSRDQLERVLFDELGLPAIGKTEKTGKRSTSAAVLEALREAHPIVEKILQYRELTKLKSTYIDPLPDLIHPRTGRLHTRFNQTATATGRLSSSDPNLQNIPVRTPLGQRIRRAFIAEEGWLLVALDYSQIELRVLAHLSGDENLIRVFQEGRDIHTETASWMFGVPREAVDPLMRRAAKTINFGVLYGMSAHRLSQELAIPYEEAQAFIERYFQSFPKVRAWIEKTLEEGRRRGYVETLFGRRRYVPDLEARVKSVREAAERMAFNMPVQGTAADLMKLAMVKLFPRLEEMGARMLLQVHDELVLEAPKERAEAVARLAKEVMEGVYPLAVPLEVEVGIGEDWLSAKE

| Kd (Taq DNA polymerase [1]) | koff (Taq DNA polymerase [1]) | kon (Taq DNA polymerase [1]) | Kd (Taq DNA polymerase [2]) | koff (Taq DNA polymerase [2]) | kon (Taq DNA polymerase [2]) | OD 450 nm (Taq DNA polymerase [3]) | OD 450 nm (Taq DNA polymerase [4]) | OD 450 nm (Taq DNA polymerase [5]) | OD 450 nm (Taq DNA polymerase [6]) | OD 450 nm (Taq DNA polymerase [7]) | OD 450 nm (Taq DNA polymerase [8]) | Kd (Taq DNA polymerase [9]) | koff (Taq DNA polymerase [9]) | kon (Taq DNA polymerase [9]) | Binder |
| --- | --- | --- | --- | --- | --- | --- | --- | --- | --- | --- | --- | --- | --- | --- | --- |
| 2.46 nM | 0.000145 s⁻¹ | 59000 M⁻¹ s⁻¹ | 2.46 nM | 0.000145 s⁻¹ | 59000 M⁻¹ s⁻¹ | 0.399 OD | 0.798 OD | 1.58 OD | 2.1 OD | 2.3 OD | 0.035 OD |  |  |  | Anti-Taq 2C7 recombinant antibody (WT) (antibody, mouse IgG1, kappa, V domains shown, Mouse antibody expressed in CHO cells; also called WT antibody; antibody of sample 1) VH: QVQLQQPGAELVKPGASVRLSCQTSVDTFSTYYLYWVKQRPGEGLEWIGGVNPTSNPVFDEKFKSKATLTVDTSSSTAYMQLSSLTSVDSAVYYCTRSILRRGYYPDYWGQGTALTVSS VL: DIQMTQTTSSLSASLGDRVTISCRGSQDIQNYVNWYQQKPDGTIKLLIYFTSRLQSGIPSRFSGSGSGTDYSLTIANLEQEDIATYFCQQDDTIPVTWGAGTKVELKR |
| 0.99 nM | 5.87e-05 s⁻¹ | 59200 M⁻¹ s⁻¹ |  |  |  | 0.059 OD | 0.514 OD | 1 OD | 1.84 OD | 2.05 OD | 0.05 OD |  |  |  | Mutation 2 (antibody, V domains shown) VH: QVQLQQPGAELVKPGASVRLSCQTSVDTFSTYYIYWVKQRPGEGLEWIGGVNPTSNPVFNEKFKSKATLTVDTSSSTAYMQLSSLTSVDSAVYYCTRSILRRGYYPDYWGQGTALTVSS VL: DIQMTQTTSSLSASLGDRVTISCRGSQDIQNYVNWYQQKPDGTIKLLIYFTSRLQSGIPSRFSGSGSGTDYSLTIANLEQEDIATYFCQQDDTIPVTFGAGTKVELKR |
| 20.7 nM | 0.00135 s⁻¹ | 65500 M⁻¹ s⁻¹ |  |  |  |  | 0.067 OD | 0.45 OD | 0.874 OD | 1.78 OD |  |  |  |  | Mutation 3 (antibody) heavy: QVQLQQPGAELVKPGASVRLSCQTSVDTFSTYYAYWVKQRPGEGLEWIGGVNPTSNPVFDEKFKSKATLTVDTSSSTAYMQLSSLTSVDSAVYYCTRSILRRGYYQDYWGQGTALTVSSAKTTPPSVYPLAPGSAAQTNSMVTLGCLVKGYFPEPVTVTWNSGSLSSGVHTFPAVLQSDLYTLSSSVTVPSSTWPSETVTCNVAHPASSTKVDKKIVPRDCGCKPCICTVPEVSSVFIFPPKPKDVLTITLTPKVTCVVVDISKDDPEVQFSWFVDDVEVHTAQTQPREEQFNSTFRSVSELPIMHQDWLNGKEFKCRVNSAAFPAPIEKTISKTKGRPKAPQVYTIPPPKEQMAKDKVSLTCMITDFFPEDITVEWQWNGQPAENYKNTQPIMDTDGSYFVYSKLNVQKSNWEAGNTFTCSVLHEGLHNHHTEKSLSHSPGK light: DIQMTQTTSSLSASLGDRVTISCRGSQDIQNYVNWYQQKPDGTIKLLIYYTSRLQSGIPSRFSGSGSGTDYSLTIANLEQEDIATYFCQQDDTIPVTYGAGTKVELKRADAAPTVSIFPPSSEQLTSGGASVVCFLNNFYPKDINVKWKIDGSERQNGVLNSWTDQDSKDSTYSMSSTLTLTKDEYERHNSYTCEATHKTSTSPIVKSFNRNEC |
|  |  |  | 5.13 nM | 0.000314 s⁻¹ | 61200 M⁻¹ s⁻¹ |  |  |  |  |  |  |  |  |  | WT 1-5 (antibody, V domains shown, WT background; CDRs built) VH: QVQLQQPGAELVKPGASVRLSCQTSVNTFTTYYLYWVKQRPGEGLEWIGGLNPTSGGPVFDEKFKSKATLTVDTSSSTAYMQLSSLTSVDSAVYYCTRSVIRRGYYPDYWGQGTALTVSS VL: DIQMTQTTSSLSASLGDRVTISCRGSQDINNYINWYQQKPDGTIKLLIYFTSRLHSGLPSRFSGSGSGTDYSLTIANLEQEDIATYFCQQDDTVPLTWGAGTKVELKR |
|  |  |  |  |  |  |  | 0.057 OD | 0.354 OD | 0.679 OD | 1.38 OD |  |  |  |  | Mutation 4 (antibody) heavy: QVQLQQPGAELVKPGASVRLSCQTSVDTFSTYYWYWVKQRPGEGLEWIGGVNPTSNPVFKEKFKSKATLTVDTSSSTAYMQLSSLTSVDSAVYYCTRSILRRGYYEDYWGQGTALTVSSAKTTPPSVYPLAPGSAAQTNSMVTLGCLVKGYFPEPVTVTWNSGSLSSGVHTFPAVLQSDLYTLSSSVTVPSSTWPSETVTCNVAHPASSTKVDKKIVPRDCGCKPCICTVPEVSSVFIFPPKPKDVLTITLTPKVTCVVVDISKDDPEVQFSWFVDDVEVHTAQTQPREEQFNSTFRSVSELPIMHQDWLNGKEFKCRVNSAAFPAPIEKTISKTKGRPKAPQVYTIPPPKEQMAKDKVSLTCMITDFFPEDITVEWQWNGQPAENYKNTQPIMDTDGSYFVYSKLNVQKSNWEAGNTFTCSVLHEGLHNHHTEKSLSHSPGK light: DIQMTQTTSSLSASLGDRVTISCRLSQDIQNYVNWYQQKPDGTIKLLIYSTSRLQSGIPSRFSGSGSGTDYSLTIANLEQEDIATYFCQQDDTIPVTEGAGTKVELKRADAAPTVSIFPPSSEQLTSGGASVVCFLNNFYPKDINVKWKIDGSERQNGVLNSWTDQDSKDSTYSMSSTLTLTKDEYERHNSYTCEATHKTSTSPIVKSFNRNEC |
|  |  |  |  |  |  |  | 0.054 OD | 0.362 OD | 0.701 OD | 1.41 OD |  |  |  |  | Mutation 5 (antibody) heavy: QVQLQQPGAELVKPGASVRLSCQTSVDTFSTYYSYWVKQRPGEGLEWIGGVNPTSNPVFYEKFKSKATLTVDTSSSTAYMQLSSLTSVDSAVYYCTRSILRRGYYKDYWGQGTALTVSSAKTTPPSVYPLAPGSAAQTNSMVTLGCLVKGYFPEPVTVTWNSGSLSSGVHTFPAVLQSDLYTLSSSVTVPSSTWPSETVTCNVAHPASSTKVDKKIVPRDCGCKPCICTVPEVSSVFIFPPKPKDVLTITLTPKVTCVVVDISKDDPEVQFSWFVDDVEVHTAQTQPREEQFNSTFRSVSELPIMHQDWLNGKEFKCRVNSAAFPAPIEKTISKTKGRPKAPQVYTIPPPKEQMAKDKVSLTCMITDFFPEDITVEWQWNGQPAENYKNTQPIMDTDGSYFVYSKLNVQKSNWEAGNTFTCSVLHEGLHNHHTEKSLSHSPGK light: DIQMTQTTSSLSASLGDRVTISCRISQDIQNYVNWYQQKPDGTIKLLIYPTSRLQSGIPSRFSGSGSGTDYSLTIANLEQEDIATYFCQQDDTIPVTRGAGTKVELKRADAAPTVSIFPPSSEQLTSGGASVVCFLNNFYPKDINVKWKIDGSERQNGVLNSWTDQDSKDSTYSMSSTLTLTKDEYERHNSYTCEATHKTSTSPIVKSFNRNEC |
| 0.384 nM | 3.78e-05 s⁻¹ | 98300 M⁻¹ s⁻¹ |  |  |  | 0.442 OD | 0.887 OD | 1.7 OD | 2.14 OD | 2.38 OD | 0.047 OD | 0.384 nM | 3.78e-05 s⁻¹ | 98300 M⁻¹ s⁻¹ | Mutation 1 (antibody, V domains shown, also called mutation 1 antibody) VH: QVQLQQPGAELVKPGASVRLSCQTSVDTFSTYYIYWVKQRPGEGLEWIGGVNPTSNPVFNEKFKSKATLTVDTSSSTAYMQLSSLTSVDSAVYYCTRSILRRGYYFDYWGQGTALTVSS VL: DIQMTQTTSSLSASLGDRVTISCRASQDIQNYVNWYQQKPDGTIKLLIYYTSRLQSGIPSRFSGSGSGTDYSLTIANLEQEDIATYFCQQDDTIPVTFGAGTKVELKR |
|  |  |  | 8.57 nM | 0.000433 s⁻¹ | 50500 M⁻¹ s⁻¹ |  |  |  |  |  |  |  |  |  | WT 1-9 (antibody, V domains shown, WT background; CDRs built) VH: QVQLQQPGAELVKPGASVRLSCQTSVETFTTYYLYWVKQRPGEGLEWIGGVNPTSGGPVFDEKFKSKATLTVDTSSSTAYMQLSSLTSVDSAVYYCTRSILRRGYYPDYWGQGTALTVSS VL: DIQMTQTTSSLSASLGDRVTISCRGSQDINNYLNWYQQKPDGTIKLLIYFTSRLQSGIPSRFSGSGSGTDYSLTIANLEQEDIATYFCQQDDTIPVTWGAGTKVELKR |
